Source: patent US20030157054A1 (Merck KGaA, published 2003)

T1: human epithelial cell adhesion molecule (EpCAM) on the cell surface (human, UniProt P16422 24-314)
T1 construct: whole, on cells; also called KS antigen; KSA
T1 sequence (looked up): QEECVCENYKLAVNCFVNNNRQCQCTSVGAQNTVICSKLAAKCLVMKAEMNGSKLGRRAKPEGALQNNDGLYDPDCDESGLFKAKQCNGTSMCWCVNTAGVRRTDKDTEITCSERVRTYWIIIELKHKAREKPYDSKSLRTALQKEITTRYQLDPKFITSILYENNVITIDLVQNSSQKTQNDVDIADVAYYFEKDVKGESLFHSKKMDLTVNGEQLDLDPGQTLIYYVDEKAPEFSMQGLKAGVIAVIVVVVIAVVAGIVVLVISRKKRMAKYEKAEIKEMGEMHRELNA


Legend:
[1] = target: soluble human EpCAM-murine Fc (KSA-muFc) (human) (UniProt P16422); assay: ELISA on plates coated with KSA-muFc; Group 1
[2] = target: soluble human EpCAM-murine Fc (KSA-muFc) (human) (UniProt P16422); assay: EpCAM binding assay (ELISA on KSA-muFc)
[3] = target: soluble human EpCAM-murine Fc (KSA-muFc) (human) (UniProt P16422); assay: ELISA on plates coated with KSA-muFc; Group 2, normalized to VK8/VH7
[4] = target: soluble human EpCAM-murine Fc (KSA-muFc) (human) (UniProt P16422); assay: SPR (Biacore), EpCAM-muFc coupled to CM5 chip, fusion protein in solution
[5] = target: soluble human EpCAM-murine Fc (KSA-muFc) (human) (UniProt P16422); assay: ELISA on plates coated with KSA-muFc; Group 3, normalized to VK8/VH7-IL2
[6] = target: T1, human epithelial cell adhesion molecule …; assay: 125I-labelled protein on EpCAM-positive PC-3 tumor cells, saturation binding with Scatchard analysis
Protocol: Purified KS-1/4 antibodies were iodinated with ¹²⁵I using standard techniques, and increasing concentrations of labeled protein were incubated with the EpCAM-positive cell line PC-3. Saturation binding curves were generated and the dissociation constants were determined by Scatchard analysis.
In addition, the binding of iodinated VK8/VH7 and VK8/VH7-IL2 to EpCAM expressed on the surface of PC-3 tumor cells was compared to binding of iodinated VK0/VH0-IL2, using methods described in Example 1F. Within experimental error, essentially identical binding affinities were found for VK8/VH7 and VK0/VH0, and for VK8/VH7-IL2 and VK0/VH0-IL2.

[7] = target: soluble human EpCAM-murine Fc (KSA-muFc) (human) (UniProt P16422); assay: ELISA on plates coated with KSA-muFc; Group 2, control to which the group is normalized

| Relative binding (fold-increase in protein concentration required to reach an equivalent level of binding) [3] [fold] | Relative binding (fold-increase in protein concentration required to reach an equivalent level of binding) [5] [fold] | Molecule | also measured |
| --- | --- | --- | --- |
|  |  | VK0/VH0 (Hybridoma chKS-1/4) (antibody) | Relative binding (fold-increase in protein concentration required to reach an equivalent level of binding) [1]: 1 fold |
|  |  | VK6/VH6 (Construct 1) (antibody, V domains shown) VH: QVQLVQSGAEVKKPGESVKISCKASGYTFTNYGMNWVRQAPGKGLEWMGWINTYTGEPTYAQKFQGRVTISLDTSTSTAYLQLSSLRAEDTAVYFCVRFISKGDYWGQGTSVTVSS VL: EIVLTQSPATLSLSPGERVTLTCSASSSVSYMLWYQQKPGQAPKLLIFDTSNLASGIPARFSGSGSGTDYTLTISSLEPEDFAVYYCHQRSGYPYTFGGGTKLEIK | fold less active in an EpCAM binding assay [2]: > 10 fold |
| 2 |  | VK1/VH1 (antibody, V domains shown) VH: QIQLVQSGPELKKPGSSVKISCKASGYTFTNYGMNWVRQAPGKGLKWMGWINTYTGEPTYADDFKGRFTITAETSTSTLYLQLNNLRSEDTATYFCVRFMSKGDYWGQGTTVTVSS VL: QIVLTQSPASLAVSPGQRATITCSASSSVSYILWYQQKPGQPPKPWIFDTSNLASGFPSRFSGSGSGTSYTLTINSLEAEDAATYYCHQRSGYPYTFGGGTKVEIK |  |
| 5 | 2 | VK1/VH1-IL2 (protein) VL: QIVLTQSPASLAVSPGQRATITCSASSSVSYILWYQQKPGQPPKPWIFDTSNLASGFPSRFSGSGSGTSYTLTINSLEAEDAATYYCHQRSGYPYTFGGGTKVEIK VH: QIQLVQSGPELKKPGSSVKISCKASGYTFTNYGMNWVRQAPGKGLKWMGWINTYTGEPTYADDFKGRFTITAETSTSTLYLQLNNLRSEDTATYFCVRFMSKGDYWGQGTTVTVSS | koff [4]: 0.0022 s⁻¹; kon [4]: 280000 M⁻¹ s⁻¹ |
| 3 to 4 |  | VK1/VH2.5-IL2 (protein) VL: QIVLTQSPASLAVSPGQRATITCSASSSVSYILWYQQKPGQPPKPWIFDTSNLASGFPSRFSGSGSGTSYTLTINSLEAEDAATYYCHQRSGYPYTFGGGTKVEIK VH: QIQLVQSGPELKKPGSSVKISCKASGYTFTNYGMNWVRQAPGKGLKWMGWINTYTGEPTYADDFKGRFTITAETSTSTLYLQLNNLRSEDTATYFCVRFISKGDYWGTGTTVTVSS |  |
|  | > 10 | VK1/VH2.1-IL2 (protein) VL: QIVLTQSPASLAVSPGQRATITCSASSSVSYILWYQQKPGQPPKPWIFDTSNLASGFPSRFSGSGSGTSYTLTINSLEAEDAATYYCHQRSGYPYTFGGGTKVEIK VH: QIQLVQSGPELKKPGSSVKISCKASGYTFTNYGMNWVRQAPGKGLKWMGWINTYTGEPTYADDFKGRFTITAETSTSTLYLQLNNLRSEDTATYFCVRFIISKGDYWGQGTTVTVSS |  |
|  | > 10 | VK1/VH2.2-IL2 (protein) VL: QIVLTQSPASLAVSPGQRATITCSASSSVSYILWYQQKPGQPPKPWIFDTSNLASGFPSRFSGSGSGTSYTLTINSLEAEDAATYYCHQRSGYPYTFGGGTKVEIK VH: QIQLVQSGPELKKPGSSVKISCKASGYTFTNYGMNWVRQAPGKGLKWMGWINTYTGEPTYADDFKGRFTITAETSTSTLYLQLNNLRSEDTATYFCVRFIVSKGDYWGQGTTVTVSS |  |
| 1 to 2 |  | VK1/VH2 (antibody, V domains shown) VH: QIQLVQSGPELKKPGSSVKISCKASGYTFTNYGMNWVRQAPGKGLKWMGWINTYTGEPTYADDFKGRFTITAETSTSTLYLQLNNLRSEDTATYFCVRFISKGDYWGQGTTVTVSS VL: QIVLTQSPASLAVSPGQRATITCSASSSVSYILWYQQKPGQPPKPWIFDTSNLASGFPSRFSGSGSGTSYTLTINSLEAEDAATYYCHQRSGYPYTFGGGTKVEIK |  |
|  | 3 | VK1/VH2.4-IL2 (protein) VL: QIVLTQSPASLAVSPGQRATITCSASSSVSYILWYQQKPGQPPKPWIFDTSNLASGFPSRFSGSGSGTSYTLTINSLEAEDAATYYCHQRSGYPYTFGGGTKVEIK VH: QIQLVQSGPELKKPGSSVKISCKASGYTFTNYGMNWVRQAPGKGLKWMGWINTYTGEPTYADDFKGRFTITAETSTSTLYLQLNNLRSEDTATYFCVRFISKTGDYWGQGTTVTVSS |  |
| 1.5 |  | VK1/VH2-IL2 (protein) VL: QIVLTQSPASLAVSPGQRATITCSASSSVSYILWYQQKPGQPPKPWIFDTSNLASGFPSRFSGSGSGTSYTLTINSLEAEDAATYYCHQRSGYPYTFGGGTKVEIK VH: QIQLVQSGPELKKPGSSVKISCKASGYTFTNYGMNWVRQAPGKGLKWMGWINTYTGEPTYADDFKGRFTITAETSTSTLYLQLNNLRSEDTATYFCVRFISKGDYWGQGTTVTVSS | koff [4]: 0.00053 s⁻¹; kon [4]: 170000 M⁻¹ s⁻¹ |
|  | 7 | VK1/VH2.3-IL2 (protein) VL: QIVLTQSPASLAVSPGQRATITCSASSSVSYILWYQQKPGQPPKPWIFDTSNLASGFPSRFSGSGSGTSYTLTINSLEAEDAATYYCHQRSGYPYTFGGGTKVEIK VH: QIQLVQSGPELKKPGSSVKISCKASGYTFTNYGMNWVRQAPGKGLKWMGWINTYTGEPTYADDFKGRFTITAETSTSTLYLQLNNLRSEDTATYFCVRFISAKGDYWGQGTTVTVSS |  |
|  |  | VK8/VH7 (Construct 3) (antibody, V domains shown, Intact antibody with human constant regions (pdHL7 vector); also called KS antibody (Construct 3)) VH: QIQLVQSGAEVKKPGETVKISCKASGYTFTNYGMNWVKQTPGKGLKWMGWINTYTGEPTYADDFKGRFAFSLETSTSTAFLQINNLRSEDTATYFCVRFISKGDYWGQGTSVTVSS VL: EIVLTQSPATLSLSPGERVTLTCSASSSVSYMLWYQQKPGSSPKPWIFDTSNLASGFPARFSGSGSGTSYSLIISSMEAEDAATYYCHQRSGYPYTFGGGTKLEIK | binding result [6]: binds; Relative binding (fold-increase in protein concentration required to reach an equivalent level of binding) [7]: 1 fold |
| 8 |  | VK0/VH1 (antibody, V domains shown) VH: QIQLVQSGPELKKPGSSVKISCKASGYTFTNYGMNWVRQAPGKGLKWMGWINTYTGEPTYADDFKGRFTITAETSTSTLYLQLNNLRSEDTATYFCVRFMSKGDYWGQGTTVTVSS VL: QILLTQSPAIMSASPGEKVTMTCSASSSVSYMLWYQQKPGSSPKPWIFDTSNLASGFPARFSGSGSGTSYSLIISSMEAEDAATYYCHQRSGYPYTFGGGTKLEIK |  |
| 1 |  | VK1/VH7 (antibody, V domains shown) VH: QIQLVQSGAEVKKPGETVKISCKASGYTFTNYGMNWVKQTPGKGLKWMGWINTYTGEPTYADDFKGRFAFSLETSTSTAFLQINNLRSEDTATYFCVRFISKGDYWGQGTSVTVSS VL: QIVLTQSPASLAVSPGQRATITCSASSSVSYILWYQQKPGQPPKPWIFDTSNLASGFPSRFSGSGSGTSYTLTINSLEAEDAATYYCHQRSGYPYTFGGGTKVEIK |  |
|  |  | VK0/VH'369 ('369 chKS-1/4) (antibody, V domains shown) VH: QIQLVQSGPELKKPGETVKISCKASGYTFTNYGMNWVKQTPGKGLKWMGWINTYTGEPTYADDFKGRFAFSLETSASTAFLQIQQPQNMRTMATYFCVRFISKGDYWGQGTSVTVSS VL: QILLTQSPAIMSASPGEKVTMTCSASSSVSYMLWYQQKPGSSPKPWIFDTSNLASGFPARFSGSGSGTSYSLIISSMEAEDAATYYCHQRSGYPYTFGGGTKLEIK | Relative binding (fold-increase in protein concentration required to reach an equivalent level of binding) [1]: > 30 fold |
